Laboratory results reported in the DeepSol protein solubility set.

Assay: soluble on expression in E. coli; label from the status in PepcDB or PDB records

Sequence | soluble on expression in E. coli
CGVFGIWGHEEAPQITYYGLHSLQHRGQEGAGIVATDGEKLTAHKGQGLITEVFQNGELSKVKGKGAIGHVRYATAGGGGYENVQPLLFRSQNNGSLALAHNGNLVNATQLKQQLENQGSIFQTSSDTEVLAHLIKRSGHFTLKDQIKNSLSMLKGAYAFLIMTETEMIVALDPNGLRPLSIGMMGDAYVVASETCAFDVVGATYLREVEPGEMLIINDEGMKSERFSMNINRSICSMEYIYFSRPDSNIDGINVHSARKNLGKMLAQESAVEADVVTGVPDSSISAAIGYAEATGIPYELGLIKNRYVGRTFIQPSQALREQGVRMKLSAVRGVVEGKRVVMVDDSIVRGTTSRRIVTMLREAGATEVHVKISSPPIAHPCFYGIDTSTHEELIASSHSVEEIRQEIGADTLSFLSVEGLLKGIGRKYDDSNCGQCLACFTGKYPTEIYQDTVLPHVK | soluble
CISMSKIAVVINPIAGGGRGKKVWKVLKPGLHALFEQTVYRISNRVNDLEAITDGLLAENPDSLLIIGGDGTLNHVLNGLIEKDKLKNPQTKIAFFNAGCGGDFTRQFPQQKMTEFLDRLSHNQFIKCDIGKITLAN | not soluble
DADPTFDFIGYLETLPQTSGMYMGNASIIPRNYRKYLYHAYLAYMEANGYRNVLSLKMFGLGLPVMLKEYGLNYEKRHTKQGIQTNLTLKEESYGDWLPK | soluble
DAPAGGNAFEEMEKHAKEFQKTFSEQFNSLVNSKNTQDFNKALKDGSDSVLQQLSAFSSSLQGAISDANGKAKEALEQARQNVEKTAEELRKAHPDVEKEANAFKDKLQAAVQTTVQESQKLAKEVASNMEETNKKLAPKIKQAYDDFVKHAEEVQKKLHEAATKQ | soluble
DAPLPHLRFALASCANWEAGFFAAYGDIARRADAGELEMLIFLGDYIYEYATGMFAGKDGVVRPHQPLHETITLEHYRTRYGHYRSDNHLQAAHAALPWIVMWDDHESANNSNREGAQNHSADEGSWVDRQNAARQVFLEWMPIRQEDTLYRSFTFGDLATLSLLDLRSFRDPAPSQQQWLEGQRADTMMGSQQFEWLKSNVEHTTTTWNIIGSSVMFAPMAITGQPLFQIPEPIPANLDQWDGYSRERDRLLAVLADFATPTLFLSGDIH | not soluble
DEDDSADNIHAVSSERWRIHAATEIEDINTFFGTEYSSEEADTIGGLVIQELGHLPVRGEKVLIGGLQFTVARADNRRLHTLMATRVK | soluble
DFGKAMYIDNPRDHAVKHFSKVYQCQSADDVQAVKKKLYDDKTAIIEKVAEQTKSFDVASTQVSGRSLKGSIDVPTLPALPQPETRQGAPKLSVLISSAQEAMLCEYQDIDVYYQLPMGLSGELSAMIELFQANPMLKPWFPAILIGEDYQAARVFLETIQPELLITNNSGVGMITKELGLGWVAGPQMNTVNSYAFKCLQDEFAASGAFVSNELNMKQMRHIKRPKNMRSFYSIYHPNTLLTSRQCLFQQTEGCRKVKVNKGCLKRCDKRTSIINLKDNPYVVQKQKGSHNSIYSEHNVLNLQVLHDLPQLFTDVLIDLRDIQTETKVSASKPELIDAFLALLEDHSEQAIQTLNAMIQPTANAQYLKGL | not soluble
DGDQCETSPCQNQGKCKDGLGEYTCTCLEGFEGKNCELFTRKLCSLDNGDCDQFCHEEQNSVVCSCARGYTLADNGKACIPTGPYPCGKQTLERRKRSVAQATSSSGEAPDSITWKPYDAADLDPTENPFDLLDFNQTQPERGDNNLTR | soluble
DGGTMENLSRRLKVTGDLFDIMSGQT | soluble
DHPFTSAPTFGDFGSNQQAMPLYRVEPVYPSRALKRGVEGFVTLSFTIDTTGKAVDINVVDANPKRMFEREAMQALKKWKYQPQIVDGKAIEQPGQTVTVEFKIAK | soluble
DIELTQTPVSLAASLGDRVTISCRASQDINNFLNWYQQKPDGTIKLLIYYTSRLHAGVPSRFSGSGSGTDYSLTISNLEPEDIATYFCQHHIKFPWTFGAGTKLEIK | soluble
DIHQEMDREELELEEVDLYRMNSQDKLGLTVCYRTDDEDDIGIYISEIDPNSIAAKDGRIREGDRIIQINGIEVQNREEAVALLTSEENKNFSLLIARPELQLDEGWMDDD | soluble
DKSYRSTKEIMEYANRFLNDTSIIPMVRSGEKVQSLSISSEDEFVDRVTYAIDDMKKEGIETIGVICENMHDTKYFGELLKSKKYINIIEKENQIYTGGETVMPSYFAKGLEFDGVILVSRENKENKDRVLYVMATRALHKLYDFHIEF | not soluble
DKVTQSSPDQTVASGSEVVLLCTYDTVYSNPDLFWYRIRPDYSFQFVFYGDDSRSEGADFTQGRFSVKHILTQKAFHLVISPVRTEDSATYYCAFTLPPPTDKLIFGKGTRVTVEP | soluble
DLDLEMLAPYIPMDDDFQLR | soluble
DLPGVVIFLHGVNDPGASYESVETGLCQGVNERLDRPDLVPGRYGGKYKEAGNVPYEKRDSDQKVILDDPDTYLYRRDASDPKTHSLLIPFYWGHRAAPDQIKRDDAGDPFRMRNQFQDINGNRLDRHFAKAGGFIANATNNIPDVYGEGFRPNLKSIALETFKPDNALYFGHSPARHYCVLAAHRLAMLIREIRRVSPDETITIMGHSQGTIVTLLAQALLVDGGDRCADTFIMVDTPYCVLPGNTPKDQDTFSTLVGIVTAITNMPHTQPAMSELRDAKTYCGRSGSRWLPTQGIRKNKVGSMTVFPERDNRGKVYLYFCPDDTTVSLDDVQ | not soluble
DLVASGATLPEIQKRGYLTVAVKDNLRPLGFRDDKGNLQGLEIDLAKRLANDLLGKPDAVKFQPVANSDRLPVIVENKIDLAIANVTATESRSRIVSFSVPYYYDGAAIVTKDTSINQLEDLYRRKIAVLNNSSTIFYVKYFIPKSELIGVSSYAQAQEKIESNAVDAFAADNSLLSGWVQEYPKYHILPSQLSTEPLSVVMAKGLQYDEFRRSVNEAIARYIATGWLKESTQHWGLGNSQEKTLTTDR | not soluble

Sequence | soluble on expression in E. coli
DNDSAPKEPTGPVTLIFTDIESSTALWAAHPDLMPDAVATHHRLIRSLITRYECYEVKTVGDSFMIASKSPFAAVQLAQELQLCFLRLDWETNAVDESYREFEEQRAEGECEYTPPTASLDPEVYSRLWNGLRVRVGIHTGLCDIRYDEVTKGYDYYGRTSNMAARTESVANGGQVLMTHAAYMSLSGEDRNQLDVTTLGATVLRGVPEPVRMYQLNAVPGRNFAALRLDR | soluble
DPSEPGHADHLTAVMADAQPAIVLTNNASAAAVRRFFSALPGAQRPRIISIDSLPDTLAQSYQIPTPSMAAAAINPVDLPAFLQYTSGSTRTPAGVVLTNRSIVTNVLQIFAAAQLKTPLRLVSWLPL | not soluble
DQVDVKDCANNEIKKVMVDGCHGSDPCIIHRGKPFTLEALFDANQNTKTAKIEIKASLDGLEIDVPGIDTNACHFVKCPLVKGQQYDIKYTWNVPKIAPKSENVVVTVKLIGDNGVLACAIATHGKIRD | soluble
DSDLYAELRCLCIKTTSGIHPKNIQSLEVIGKGTHCNQVEVIATLKDGRKICLDPDAPRIKKIVQKKLAGDESAD | soluble
DSNLLLKLGMLTGRIVPDNQAVYAKDFKPESILGASNLSFRGNVNISEGQSADVVFLNADNGILVQDLPFEVKLKKFHIDFYNTGMPRDFASDIEVTDKATGEKLERTIRVNHPLTLHGITIYQASFADGGSDLTFKAWNLGDASREPVVLKATSIHQFPLEIGKHKYRLEFDQFTSMNVEDMSEGAEREKSLKSTLNDVRAVTQEGKKYTNIGPSIVYRIRDAAGQAVEYKNYMLPVLQEQDYFWITGTRSGLQQQYRWLRIPLDKQLKADTFMALREFLKDGEGRKRLVADATKGAPAEIREQFMLAAENTLNIFAQKGYLGLDEFITSNIPKEQQDKMQGYFYEMLYGVMNAALDETIRRYGLPEWQQDEARNRFLLHSMDAYTGLTEYPAPMLLQLDGFSEVRSSGLQMTRSP | not soluble
DTHFPICIFCCGCCHRSKCGMCCKT | soluble
DVTDIKVKEAEIVSKSVAIREIHHRVKNNLQSVVSLLRIQGRRSTSVEAQKVLNESVSRILAIAATHELLSKQMEDGINLYMVIEAVAYNIERCCNDCPQVAVRMDI | not soluble
DYQIQISISDISEDRTEHQFTSNPEVKTPVGFEQHVESIPEMEDFGLSAAELMDESVPSDFQLDIGLVDDFLEIPSHETEVPQPKVASMQPDTNAKSQKPTVHRGELEAFIYGMGIDPNMVPSQNREQWFEQLGQSFSLMLIGLMETLHNRAVFKQTNRVNHTAFRKSENNPLKFSANLEDAIHNLYNRQTSSFLKPNAAIKEAFNDIENHEQALMQGVAGTVSSVMSLVEPNTIYSDALAKDNVINKVIPARKYAQSWKRFEGIHSQLTDELVNKESPFYLEDFAKHYELALKNKG | not soluble
EDCQNLLKPCSLCEKRPRDGNIIHGRTGHLVTCFHCARRLKKAGASCPICKKEIQLVIKVFIA | soluble
EEATSKGQNLNVEKINGEWFSILLASDKREKIEEHGSMRVFVEHIHVLENSLAFKFHTVIDGECSEIFLVADKTEKAGEYSVMYDGFNTFTILKTDYDNYIMFHLINEKDGKTFQLMELYGRKADLNSDIKEKFVKLCEEHGIIKENIIDLTKTNRCLKARE | soluble
EGKTSSASPNNPQELKRRVIEEGFRRAGIEFGGLKGNSLEALRQFGDPMMATVVGLSLGFKGDVVLAGGTQMLAVAAILKGLGEDLSRFMIATTRWVVEDKSATFIKTAREIGIISYAADLDFSKSEFKGLRDYEKGYVKEGVGAGGATWLAV | not soluble
EGLPVLAPVTKDTATSLYTIPFHDGASLVLDVAGLLVWSTCEGGQSPAEIACSSPTCLLANAYPAPGCPAPSCGSDRHDKPCTAYPSNPVTGACAAGSLFHTRFAANTTDGNKPVSEVNVRVLAACAPSKLLASLPRGSTGVAGLAGSGLALPSQVASAQKVPNKFLLCLPTGGPGVAIFGGGPLPWPQFTQSMDYTPLVAKGGSPAHYISARSIKVENTRVPISERALATGGVMLSTRLPYVLLRRDVYRPLVDAFTKALAAQPANGAPVARAVKPVAPFELCYDTKTLGNNPGGYWVPNVLLELDGGSDWAMTGKNSMVDVKPGTACVAFVEMKGVDAGDGSAPAVILGGAQMEDFVLDFDMEKKRLGFLRLPHFTGCSSFNFARST | soluble
EHKIILYENPNFTGKKMEIVDDDVPSFHAHGYQEKVSSVRVQSGTWVGYQYPGYRGLQYLLEKGDYKDNSDFGAPHPQVQSVRRIRDMQGNPKIIIFEQENFQGHSHELSGPCPNLKETGMEKAGSVLVQAGPWVGYEQANCKGEQFVFEKGEYPRWDSWTSSRRTDSLSSLRPIK | soluble
EHLRLDNDQREKYIQEARNMGSTIRQPKLSNLSPSVIAQTNWKFVEGLLKECRNKTKRMLVEKMGREAVELGHGEVNITGVEENTLIASLCDLLERIWSHGLQVKQGKSALWSHLLHYQENRQRKLTSGSLSTSGILLDSERRKSDASAVMSPLRISLIQDMRHIQNIGEIKTDVGKARAWVRLSMEKKLLSRHLKQLLSDHELTKKLYKRYAFLRCDDEKEQFLYHLLSFNAVDYFCFTNVFTTILIPYHILIVPSKKLGGSMFTANPWICISGELGETQILQIPRNVLEMTFECQNLGKLTTVQIGHDNSGLYAKWLVECVMVRNEVTGHTYKFPCGRWLGKGMDDGSLERVLVGELLTSLPEVDERPCRTPPLQQSPSVIR | soluble
EIEKGGCGDPGIPAYGKRTGSSFLHGDTLTFECPAAFELVGERVITCQQNNQWSGNKPSC | soluble
EKKQAEEALIRSENNFRTLAENSPDIISRFDRQNRHIYVNPAAEEPYGRPPEEIIGKTHSELGMDPEKVKLWESHHEKVFATGKPESMEFGYTSSQGKEYYFNTQVVPEFIDGKVTSILVISHNIT | not soluble
